These results are taken from the Human Domainome abundance scans (Beltran et al. 2025).

The labels stand for the following.
B1: PDZ and LIM domain protein 2, residues 284 to 339; numbered along this chain, Q96JY6 (parent)
chain: HTCEKCSTSIANQAVRIQEGRYRHPGCYTCADCGLNLKMRGHFWVGDELYCEKHAR

± gives the uncertainty stated by the source.

The variants in this series derive from B1. Description: abundance fitness (aPCA) (normalised: wild type 0, dead -1); higher = more abundant; growth selection in yeast, the domain comes from the species named. The following applies: Homo sapiens.
In the case of HTCEKCSTSIANQAVRIQEGRYRHPGCYTCADCALNLKMRGHFWVGDELYCEKHAR, the abundance fitness was -0.09 ± 0.09.
To HTCEKCSTSIANQAVRIQEGRYRHPGCYTCADCWLNLKMRGHFWVGDELYCEKHAR belongs -0.799 ± 0.14.
As for HTCEKCSTSIANQAVRIQEGRYRHPGCYTCADCELNLKMRGHFWVGDELYCEKHAR, the abundance fitness is -0.146 ± 0.16.
For the variant HTCEKCSTSIANQAVRIQEGRYRHPGCYTCADCSLNLKMRGHFWVGDELYCEKHAR, the abundance fitness was 0.024 ± 0.076.
With HTCEKCSTSIANQAVRIQEGRYRHPGCYTCADCCLNLKMRGHFWVGDELYCEKHAR, the abundance fitness was -0.413 ± 0.1.
To HRCEKCSTSIANQAVRIQEGRYRHPGCYTCADCGLNLKMRGHFWVGDELYCEKHAR belongs -0.389 ± 0.091.
In the case of HTCEKCSTSIANQAVRIQEGRYRHPGCYTCADCGVNLKMRGHFWVGDELYCEKHAR, the abundance fitness turned out to be 0.053 ± 0.064.
To HTCEKCSTSIANQAVRIQEGRYRHPGCYTCADCGFNLKMRGHFWVGDELYCEKHAR belongs 0.178 ± 0.13.
Turning to HTCEKCSTSIANQAVRIQEGRYRHPGCYTCADCGENLKMRGHFWVGDELYCEKHAR, the abundance fitness amounted to 0.086 ± 0.086.
The result for HTCEKCSFSIANQAVRIQEGRYRHPGCYTCADCGLNLKMRGHFWVGDELYCEKHAR reads -0.111 ± 0.15; that for HTCEKCSTSIANQAVRIQEGRYRAPGCYTCADCGLNLKMRGHFWVGDELYCEKHAR, -0.307 ± 0.098.
The result for HTCEKCSTSIANQAVRIQEGRYRQPGCYTCADCGLNLKMRGHFWVGDELYCEKHAR reads -0.186 ± 0.2.
To HTCEKCSTSIANQAVRIQEGRYRHPGCYTCADCGLNLKFRGHFWVGDELYCEKHAR belongs -0.186 ± 0.069.
On to HTCEKCSTSIANQAVRIQEGRYRHPGCYTCADCGLNLKTRGHFWVGDELYCEKHAR, for which the abundance fitness came to 0.173 ± 0.086.
HTCEKCSTSIANQAVRRQEGRYRHPGCYTCADCGLNLKMRGHFWVGDELYCEKHAR: the abundance fitness was -0.599 ± 0.074.
To HTCEKCSTSIANQAVRIQEGRYRHPGCYTCADCGLNLKMRGHFWVGDELACEKHAR belongs -0.188 ± 0.086.
As for HTCEKCSTSIANQAVRIQEGRYRHPGCYTCADCGLNLKMRGHFWVGDELNCEKHAR, the abundance fitness was -0.239 ± 0.17.
To HTCEKCSTSIANQAVRIQEGRYRHPGCYTCADCGLNLKMRGHFWVGDELYCEKLAR belongs -0.653 ± 0.091.
The result for HTCEKCSTSIANQAWRIQEGRYRHPGCYTCADCGLNLKMRGHFWVGDELYCEKHAR reads -0.875 ± 0.17.
To HTCEKCSTSIANQATRIQEGRYRHPGCYTCADCGLNLKMRGHFWVGDELYCEKHAR belongs -0.018 ± 0.063; to HTCEKCSTSIANQAVRIQEGRYRHPGCYTCADCGLNLKMRGHFWVGIELYCEKHAR, -0.135 ± 0.081.
Consider HTCEKCSTSIANQAVRIQEGRYRHPGCYTCADCGLNLKMRGHFWVGKELYCEKHAR, for which the abundance fitness came to 0.052 ± 0.12.
Regarding HTCEKCSTSIANQAVRIQEGRNRHPGCYTCADCGLNLKMRGHFWVGDELYCEKHAR, the abundance fitness is -0.32 ± 0.1.
Turning to HTCEKCSTSIANQAVRIQEGRFRHPGCYTCADCGLNLKMRGHFWVGDELYCEKHAR, the abundance fitness was determined as 0.108 ± 0.076.
Take HTCEKCSTSIYNQAVRIQEGRYRHPGCYTCADCGLNLKMRGHFWVGDELYCEKHAR: the abundance fitness is -0.643 ± 0.26.
Regarding HTCEKCSTSIANQAVRIQEGRYRHPFCYTCADCGLNLKMRGHFWVGDELYCEKHAR, the abundance fitness was 0.19 ± 0.091.
As to HTCEKCSTSIANQAVRIQEGRYRHPTCYTCADCGLNLKMRGHFWVGDELYCEKHAR, the abundance fitness came to 0.158 ± 0.08.
With HTCEKCSTSIANQAVRIQVGRYRHPGCYTCADCGLNLKMRGHFWVGDELYCEKHAR, the abundance fitness is -0.495 ± 0.093.
The result for HTCEKCSTSIANQAVRIQSGRYRHPGCYTCADCGLNLKMRGHFWVGDELYCEKHAR reads -0.197 ± 0.098; that for HTCEKCSTSIANQGVRIQEGRYRHPGCYTCADCGLNLKMRGHFWVGDELYCEKHAR, -0.254 ± 0.089.
The result for HTCEKCSTSIANQAVRIQEGLYRHPGCYTCADCGLNLKMRGHFWVGDELYCEKHAR reads -0.01 ± 0.067.
Turning to HTCEKCSTSIANQAVRIQEGMYRHPGCYTCADCGLNLKMRGHFWVGDELYCEKHAR, the abundance fitness turned out to be 0.035 ± 0.12.
To HTCEKCSTSIANQAVRIQEGRYRHPGCVTCADCGLNLKMRGHFWVGDELYCEKHAR belongs -0.144 ± 0.095; to HTCEKCSTSIANQAVRIQEGRYRHPGCPTCADCGLNLKMRGHFWVGDELYCEKHAR, -0.752 ± 0.21; to HTCEKCSTSIANQAVRIQEGRYRHPGCFTCADCGLNLKMRGHFWVGDELYCEKHAR, -0.364 ± 0.13.
As for HTCEKCSTSIANQAVRIQEGRYRHPGCHTCADCGLNLKMRGHFWVGDELYCEKHAR, the abundance fitness was -0.225 ± 0.095.
Take HTCEKCSTSIANQAVRIQEGRYRHPGCYTCADCGLNLKMRGHFWVGDMLYCEKHAR: the abundance fitness was -0.18 ± 0.12.
To HTCEKCSTSIANQAVRIQEGRYRHPGCYTCADCGLNLKMRGHFWAGDELYCEKHAR belongs 0.022 ± 0.087; to HTCEKCSTSIANQAVRIQEGRYRHPGCYTCADCGLNLKMRGHFWVGDELYCNKHAR, 0.18 ± 0.13; to HTCEKCSTSIANQAVRIQEGRYRHPGCYTCAHCGLNLKMRGHFWVGDELYCEKHAR, 0.027 ± 0.11.
In the case of HTCEKCSTSIANQAVRIQEGRYRHPGCYTCADCGLNLKMRKHFWVGDELYCEKHAR, the abundance fitness is -0.169 ± 0.12.
HTCEKCSTSIANQAVRIQEGRYRHPGCYTCADCGLNLKMRCHFWVGDELYCEKHAR: the abundance fitness was -0.408 ± 0.095.
As for HTCEKCSTSIANQAVRIQEGRYRHPGCYTCADCGLNLKMRTHFWVGDELYCEKHAR, the abundance fitness is -0.083 ± 0.095.
To HTCEKCSTSIANTAVRIQEGRYRHPGCYTCADCGLNLKMRGHFWVGDELYCEKHAR belongs -0.11 ± 0.097.
The result for HTCEKCSTSIANWAVRIQEGRYRHPGCYTCADCGLNLKMRGHFWVGDELYCEKHAR reads -1.19 ± 0.19; that for HTCEFCSTSIANQAVRIQEGRYRHPGCYTCADCGLNLKMRGHFWVGDELYCEKHAR, -0.467 ± 0.34; that for HTCEDCSTSIANQAVRIQEGRYRHPGCYTCADCGLNLKMRGHFWVGDELYCEKHAR, 0.181 ± 0.12.
